Assay results from patent publication US12319739 (F STAR DELTA, dated 2025).

T1: human CEACAM-5-His-Fc (human, UniProt P06731 35-685)
T1 sequence (looked up): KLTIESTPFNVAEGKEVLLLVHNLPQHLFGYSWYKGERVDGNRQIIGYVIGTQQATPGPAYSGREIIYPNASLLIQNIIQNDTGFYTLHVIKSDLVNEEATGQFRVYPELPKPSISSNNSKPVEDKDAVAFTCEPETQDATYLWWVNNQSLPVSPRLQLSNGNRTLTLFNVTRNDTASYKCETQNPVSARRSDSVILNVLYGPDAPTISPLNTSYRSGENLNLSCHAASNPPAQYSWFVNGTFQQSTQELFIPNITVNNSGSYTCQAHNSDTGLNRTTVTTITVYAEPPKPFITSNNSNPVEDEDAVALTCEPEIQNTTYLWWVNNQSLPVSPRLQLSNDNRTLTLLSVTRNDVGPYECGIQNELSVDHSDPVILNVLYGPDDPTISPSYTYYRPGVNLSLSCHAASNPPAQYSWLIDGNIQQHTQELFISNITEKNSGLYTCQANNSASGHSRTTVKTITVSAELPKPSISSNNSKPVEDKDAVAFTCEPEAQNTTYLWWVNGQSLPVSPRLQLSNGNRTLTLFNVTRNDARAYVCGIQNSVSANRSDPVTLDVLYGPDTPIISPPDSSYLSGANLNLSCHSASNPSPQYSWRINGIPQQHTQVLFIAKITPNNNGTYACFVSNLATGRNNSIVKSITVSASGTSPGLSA

T2: human E-Cadherin (human, UniProt P12830 155-707)
T2 sequence (looked up): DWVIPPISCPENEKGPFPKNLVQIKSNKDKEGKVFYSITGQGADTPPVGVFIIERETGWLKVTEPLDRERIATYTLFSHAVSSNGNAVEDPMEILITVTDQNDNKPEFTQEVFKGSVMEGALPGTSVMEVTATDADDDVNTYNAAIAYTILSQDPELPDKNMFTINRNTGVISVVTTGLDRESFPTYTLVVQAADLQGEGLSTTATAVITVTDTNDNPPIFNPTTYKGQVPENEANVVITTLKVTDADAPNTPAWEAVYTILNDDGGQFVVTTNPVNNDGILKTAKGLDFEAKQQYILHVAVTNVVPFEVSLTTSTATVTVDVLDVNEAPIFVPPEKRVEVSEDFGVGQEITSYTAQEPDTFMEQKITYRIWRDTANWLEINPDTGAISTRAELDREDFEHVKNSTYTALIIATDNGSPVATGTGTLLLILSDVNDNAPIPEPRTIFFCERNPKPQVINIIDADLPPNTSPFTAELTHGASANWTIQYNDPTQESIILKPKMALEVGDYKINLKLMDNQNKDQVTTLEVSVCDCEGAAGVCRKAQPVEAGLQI

T3: human EpCAM-hFc (human, UniProt P16422 24-265, limits assumed)
T3 sequence (looked up): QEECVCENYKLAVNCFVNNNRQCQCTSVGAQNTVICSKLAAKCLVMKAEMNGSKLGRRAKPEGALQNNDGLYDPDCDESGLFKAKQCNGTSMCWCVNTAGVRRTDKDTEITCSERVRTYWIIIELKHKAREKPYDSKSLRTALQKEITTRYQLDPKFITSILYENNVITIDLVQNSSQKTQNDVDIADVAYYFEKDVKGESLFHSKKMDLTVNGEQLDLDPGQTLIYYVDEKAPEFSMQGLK

B1: FS28-256 (mAb in G1-AA format) (antibody, human IgG1, V domains shown)
VH: EVQLLESGGGLVQPGGSLRLSCAASGFTFTNTYMSWVRQAPGKGLEWVSNISPTYSTTNYADSVKGRFTISRDNSKNTLYLQMNSLRAEDTAVYYCARYNSYQGGLDYWGQGTLVTVSS
VL: EIVLTQSPGTLSLSPGERATLSCRASQSVSSSYLAWYQQKPGQAPRLLIYGASSRATGIPDRFSGSGSGTDFTLTISRLEPEDFAVYYCQQSYYYPITFGQGTKVEIK
B2: FS28-185 (mAb in G1-AA format) (antibody, human IgG1, V domains shown)
VH: EVQLLESGGGLVQPGGSLRLSCAASGFTFTTSAMSWVRQAPGKGLEWVSRINPYEGETNYADSVKGRFTISRDNSKNTLYLQMNSLRAEDTAVYYCARGWSIATYYKSAMDYWGQGTLVTVSS
VL: EIVLTQSPGTLSLSPGERATLSCRASQSVSSSYLAWYQQKPGQAPRLLIYGASSRATGIPDRFSGSGSGTDFTLTISRLEPEDFAVYYCQQSSYSAPVTFGQGTKVEIKR

What was measured:
human Thrombomodulin = human Thrombomodulin (human, UniProt P07204 19-515, limits assumed); assay: ELISA, antigen coated 1 µg/ml
Experimental: (§1) Binding of the anti-MSLN mAbs, tested at a concentration range of 0.02 to 1000 nM (3-fold dilutions) was detected using anti-human Fab-HRP (Sigma, A0293).

human CEACAM-5-His-Fc = target: T1, human CEACAM-5-His-Fc; assay: ELISA, antigen coated 1 µg/ml
Experimental: as §1

human E-Cadherin = target: T2, human E-Cadherin; assay: ELISA, antigen coated 1 µg/ml
Experimental: as §1

human EpCAM-hFc = target: T3, human EpCAM-hFc; assay: ELISA, antigen coated 1 µg/ml
Experimental: as §1

hMSLN-His-Avi [1] = target: T4, hMSLN-His-Avi (human, UniProt Q13421 296-598, single biotin on the Avi tag in the biotinylated form); assay: ELISA, hMSLN-His-Avi coated 1 µg/ml
T4 construct: Monomeric; also called human MSLN-His-Avi; hMSLN-Avi-His

hMSLN-His-Avi [2] = target: T4, hMSLN-His-Avi; assay: SPR, hMSLN-His-Avi immobilised at 100 RU
hMSLN-His-Avi [3] = target: T4, hMSLN-His-Avi; assay: SPR, hMSLN-His-Avi immobilised at 50 RU

T4 sequence (Q13421 other isoform, or with tags, fused parts or gaps): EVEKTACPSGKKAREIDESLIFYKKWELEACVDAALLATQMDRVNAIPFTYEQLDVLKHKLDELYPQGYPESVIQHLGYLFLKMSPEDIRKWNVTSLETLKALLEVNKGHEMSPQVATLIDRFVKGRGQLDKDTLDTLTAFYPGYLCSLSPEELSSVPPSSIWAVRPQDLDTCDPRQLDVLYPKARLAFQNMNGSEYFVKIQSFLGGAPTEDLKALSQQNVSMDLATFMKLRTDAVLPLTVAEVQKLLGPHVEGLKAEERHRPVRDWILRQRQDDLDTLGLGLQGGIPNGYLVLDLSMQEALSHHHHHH
Chain of human Thrombomodulin (P07204 19-515 limits assumed): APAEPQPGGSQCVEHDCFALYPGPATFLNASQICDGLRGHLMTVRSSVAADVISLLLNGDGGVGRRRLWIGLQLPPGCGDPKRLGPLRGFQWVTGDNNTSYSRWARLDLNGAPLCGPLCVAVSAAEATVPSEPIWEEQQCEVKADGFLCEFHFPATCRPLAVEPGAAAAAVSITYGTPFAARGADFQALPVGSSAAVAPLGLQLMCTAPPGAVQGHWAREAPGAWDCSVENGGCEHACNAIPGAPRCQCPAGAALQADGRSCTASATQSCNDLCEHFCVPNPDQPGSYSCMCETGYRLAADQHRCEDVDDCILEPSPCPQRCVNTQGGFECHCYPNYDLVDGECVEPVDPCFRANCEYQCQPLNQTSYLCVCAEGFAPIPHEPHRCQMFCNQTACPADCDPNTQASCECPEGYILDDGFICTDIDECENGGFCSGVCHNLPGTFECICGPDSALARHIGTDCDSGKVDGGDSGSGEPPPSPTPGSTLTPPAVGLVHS

Binder	binding result (human Thrombomodulin)	binding result (human CEACAM-5-His-Fc)	binding result (human E-Cadherin)	binding result (human EpCAM-hFc)	EC50 (hMSLN-His-Avi [1]) [nM]	maximum binding signal (hMSLN-His-Avi [1])	Kd (hMSLN-His-Avi [2]) [nM]	Kd (hMSLN-His-Avi [3]) [nM]
B1	no binding (tested: 1000 nM)	no binding (tested: 1000 nM)	no binding (tested: 1000 nM)	no binding (tested: 1000 nM)	~0.5	3	23.2	26.2
B2	no binding (tested: 1000 nM)	no binding (tested: 1000 nM)	no binding (tested: 1000 nM)	no binding (tested: 1000 nM)	~0.5	3	29.6	37
